For orientation: Kd means the concentration at which binding is half-saturated. A word on the koff: it is the rate constant with which the complex falls apart. For orientation: kon means the second-order rate constant of association.

The target in assay [1] is pig DLL3-ECD (recombinant extracellular domain of pig DLL3) (pig). Description: SPR (ProteOn), biotinylated DARPin on chip, pig DLL3-ECD as analyte, 1:1 Langmuir fit.
In assay [2] the target is T1, Cyno DLL3-ECD (extracellular domain of cynomolgus macaque DLL3, residues 27 to 466, Avi-tag, 3C site, Fc knob … (cynomolgus macaque, UniProt A0A2K5WSR1 27-464, biotinylated at the Avi-tag (Example 11))).
T1 construct: range 27-466; also called cyno ECD; cynomolgus monkey DLL3; not shown: Avi-tag, 3C protease recognition site and Fc knob into hole
T1 sequence: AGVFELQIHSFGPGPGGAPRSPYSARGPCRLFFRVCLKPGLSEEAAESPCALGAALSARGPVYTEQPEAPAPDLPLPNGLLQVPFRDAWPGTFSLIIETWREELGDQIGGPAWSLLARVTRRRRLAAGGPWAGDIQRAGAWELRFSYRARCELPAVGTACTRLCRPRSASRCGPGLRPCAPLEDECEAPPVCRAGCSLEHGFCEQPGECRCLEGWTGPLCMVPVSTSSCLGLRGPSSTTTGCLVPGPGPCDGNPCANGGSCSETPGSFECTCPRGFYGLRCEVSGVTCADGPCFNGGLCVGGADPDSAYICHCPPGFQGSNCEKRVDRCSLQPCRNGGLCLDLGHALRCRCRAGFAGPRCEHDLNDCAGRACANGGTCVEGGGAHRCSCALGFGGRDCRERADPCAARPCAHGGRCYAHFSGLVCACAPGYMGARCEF
Description: SPR (ProteOn), biotinylated DARPin on chip, cyno DLL3-ECD as analyte, 1:1 Langmuir fit. The method, then:
(§1) SPR multi-trace analyses were performed similarly as described in Examples 1 and 11. Here, the binding kinetics of immobilized DARPin proteins to the extracellular domain of DLL3 (DLL3-ECD) from human, cynomolgus monkey, mouse and pig were determined.
(§2) Streptavidin SAHC200M (Xantec) SPR chip was conditioned according to the manufacturer's protocol.

Assay [3] addresses T2, Human DLL3-ECD (recombinant extracellular domain of human DLL3, Examples 11, 17 and 19) (human, UniProt Q9NYJ7 27-466, biotinylated at the Avi-tag where immobilised (Examples 11 and 19)).
T2 construct: also called hDLL3-ECD; human ECD; not shown: Avi-tag and Fc knob into hole (order depends on the format)
T2 sequence: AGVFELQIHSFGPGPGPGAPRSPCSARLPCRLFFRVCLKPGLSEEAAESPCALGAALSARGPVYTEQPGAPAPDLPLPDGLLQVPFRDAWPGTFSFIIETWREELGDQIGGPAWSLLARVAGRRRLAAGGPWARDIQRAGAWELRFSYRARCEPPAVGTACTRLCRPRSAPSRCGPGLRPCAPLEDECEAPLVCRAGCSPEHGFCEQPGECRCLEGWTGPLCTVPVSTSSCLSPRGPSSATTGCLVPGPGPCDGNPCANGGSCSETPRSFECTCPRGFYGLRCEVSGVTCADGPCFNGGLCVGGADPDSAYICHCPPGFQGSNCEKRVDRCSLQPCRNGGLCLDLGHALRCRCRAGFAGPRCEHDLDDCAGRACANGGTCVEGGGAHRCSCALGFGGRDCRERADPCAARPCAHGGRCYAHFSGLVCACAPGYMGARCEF
Description: SPR (ProteOn), biotinylated DARPin on chip, human DLL3-ECD as analyte, 1:1 Langmuir fit. On the procedure:
as §1, §2

In assay [4] the target is T3, mouse DLL3-ECD (recombinant extracellular domain of mouse DLL3) (mouse, UniProt O88516 33-490).
T3 construct: extracellular domain
T3 sequence (looked up): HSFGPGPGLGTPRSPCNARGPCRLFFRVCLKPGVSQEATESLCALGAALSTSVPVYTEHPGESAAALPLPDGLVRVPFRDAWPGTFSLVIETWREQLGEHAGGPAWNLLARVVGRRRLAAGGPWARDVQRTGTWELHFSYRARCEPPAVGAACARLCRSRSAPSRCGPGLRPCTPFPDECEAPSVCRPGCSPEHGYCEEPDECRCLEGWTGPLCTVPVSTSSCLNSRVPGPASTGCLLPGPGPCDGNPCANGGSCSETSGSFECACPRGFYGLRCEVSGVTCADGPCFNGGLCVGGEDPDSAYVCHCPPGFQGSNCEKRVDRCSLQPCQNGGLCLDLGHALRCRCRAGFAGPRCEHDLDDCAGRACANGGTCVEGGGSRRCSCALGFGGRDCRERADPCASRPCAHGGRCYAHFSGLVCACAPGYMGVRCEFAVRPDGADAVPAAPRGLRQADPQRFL
Description: SPR (ProteOn), biotinylated DARPin on chip, mouse DLL3-ECD as analyte, 1:1 Langmuir fit. The method, then:
as §1, §2

The next assay has as its target T4, Human DLL3-ECD (Homo sapiens, UniProt Q9NYJ7).
T4 construct: the extracellular domain of DLL3 (DLL3-ECD) from human, cynomolgus monkey, mouse and pig
T4 sequence (Q9NYJ7 27-492 limits assumed): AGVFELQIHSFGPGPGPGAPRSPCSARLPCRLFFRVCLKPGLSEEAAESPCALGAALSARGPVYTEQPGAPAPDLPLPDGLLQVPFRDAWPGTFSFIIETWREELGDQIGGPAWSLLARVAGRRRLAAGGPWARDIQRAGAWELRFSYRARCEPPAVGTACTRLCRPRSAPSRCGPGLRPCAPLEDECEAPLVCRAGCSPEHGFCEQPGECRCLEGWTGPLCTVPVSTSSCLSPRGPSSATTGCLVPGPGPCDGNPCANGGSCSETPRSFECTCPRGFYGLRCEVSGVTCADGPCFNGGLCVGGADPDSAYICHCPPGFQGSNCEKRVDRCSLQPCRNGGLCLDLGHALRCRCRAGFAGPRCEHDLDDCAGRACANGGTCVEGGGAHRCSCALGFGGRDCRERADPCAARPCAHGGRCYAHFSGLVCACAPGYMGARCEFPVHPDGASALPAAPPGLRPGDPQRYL
Description: SPR, immobilized DARPin, binding of human DLL3-ECD (Example 17). Conditions: immobilized biotinylated DARPin, DLL3-ECD as analyte, 1:1 Langmuir, Table 19. The method, then:
(§3) Kinetic binding parameters and binding affinities of two domain (2D) ankyrin repeat protein MAM279 and single domain (1 D) ankyrin repeat protein MAM093 to DLL3 from different species were determined. The DLL3-specific ankyrin repeat domain of MAM093 is identical to the DLL3-specific ankyrin repeat domain comprised in MAM279.
(§4) SPR multi-trace analyses were performed similarly as described in Examples 1 and 11. Here, the binding kinetics of immobilized DARPin proteins to the extracellular domain of DLL3 (DLL3-ECD) from human, cynomolgus monkey, mouse and pig were determined. Various concentrations of recombinant DLL3-ECD starting from 500 nM were applied to immobilized biotinylated 2D DARPin (MAM279; SEQ ID NO: 11) or 1 D DARPin (MAM093; SEQ ID NO: 1) (both with a Glycine-Serine (GS) at the N-terminal end) for on-rate and off-rate measurements.
(§5) Streptavidin SAHC200M (Xantec) SPR chip was conditioned according to the manufacturer's protocol. Biotinylated DARPins were immobilized to a coating density of 27 resonance units (RU) for 1D DARPin and 25 RU for 2D DARPin. All analytes (3-fold dilution ranging from 500-6.17 nM) were injected in succession for 240 s and dissociation was recorded for 10800 s using a constant flow of 100 μl/min.
(In general: SPR reads the build-up and loss of mass on a sensor chip optically.)

The next assay deals with Cyno DLL3-ECD. Description: SPR, immobilized DARPin, binding of cyno DLL3-ECD (Example 17). Details: species or system cynomolgus monkey. Conditions: immobilized biotinylated DARPin, DLL3-ECD as analyte, 1:1 Langmuir, Table 19. On the procedure:
as §3, §4, §5

Another assay concerns the target T5, mouse DLL3-ECD (Mus musculus, UniProt O88516).
T5 construct: the extracellular domain of DLL3 (DLL3-ECD) from human, cynomolgus monkey, mouse and pig
T5 sequence (O88516 33-490 limits assumed): T3 sequence (looked up)
Briefly: SPR, immobilized DARPin, binding of mouse DLL3-ECD (Example 17). Conditions: immobilized biotinylated DARPin, DLL3-ECD as analyte, 1:1 Langmuir, Table 20. The method, then: as §3, §4, §5

The next assay addresses pig DLL3-ECD. Briefly: SPR, immobilized DARPin, binding of pig DLL3-ECD (Example 17). Conditions: immobilized biotinylated DARPin, DLL3-ECD as analyte, 1:1 Langmuir, Table 20. On the procedure:
as §3, §4, §5

B1: Biotinylated 2D DARPin MAM279 (SEQ ID NO: 11) with a Glycine-Serine (GS) at the N-terminal end (designed binder)
chain: GSDLGKKLLEAARAGQDDEVRELLKAGADVNAKDYFSHTPLHLAARNGHLKIVEVLLKAGADVNAKDFAGKTPLHLAADAGHLEIVEVLLKAGADVNAQDIFGKTPADIAADAGHEDIAEVLQKAAGSPTPTPTTPTPTPTTPTPTPTGSDLGKKLLAAAAQGQDDEVRELLKAGANVNAKDLFGYTPLHLAAWRGHLEIVEVLLKAGADVNAKDAAGETPLHLAAWFGHLEIVEVLLKAGADVNAQDLQGKTPADLAAKEGHEDIAEVLQKAA
modifications: biotinylated (site and any tag used not stated)
notes: also called Biotinylated DARPin MAM279
Take B1: the Kd in assay [1] was determined as 17.3 nM; in assay [2], 8.88 nM; in assay [3] it was 0.127 nM; in assay [4], 83.9 nM. Further, the koff worked out at 0.000319 s⁻¹ in assay [1], 0.000939 s⁻¹ in assay [2], 1.31e-05 s⁻¹ in assay [3] and 0.00282 s⁻¹ in assay [4]. In addition, the kon in assay [1] was determined as 18400 M⁻¹ s⁻¹; in assay [2], 106000 M⁻¹ s⁻¹; in assay [3], 102000 M⁻¹ s⁻¹; in assay [4], 33700 M⁻¹ s⁻¹.

B2: Biotinylated 1D DARPin MAM093 (SEQ ID NO: 1) with a Glycine-Serine (GS) at the N-terminal end (designed binder)
chain: GSDLGKKLLAAAAQGQDDEVRELLKAGANVNAKDLFGYTPLHLAAWRGHLEIVEVLLKAGADVNAKDAAGETPLHLAAWFGHLEIVEVLLKAGADVNAQDLQGKTPADLAAKEGHEDIAEVLQKAA
modifications: biotinylated (site and any tag used not stated)
notes: also called Biotinylated DARPin MAM093
Regarding B2, the Kd amounted to 14.3 nM in assay [1], 8.72 nM in assay [2], 0.13 nM in assay [3] and 149 nM in assay [4]. The koff in assay [1] was determined as 0.00033 s⁻¹; in assay [2] it was 0.000825 s⁻¹; in assay [3], 1.18e-05 s⁻¹; in assay [4], 0.004 s⁻¹. Also, the kon in assay [1] worked out at 23100 M⁻¹ s⁻¹; in assay [2] it was 94700 M⁻¹ s⁻¹; in assay [3] it was 90700 M⁻¹ s⁻¹; in assay [4], 26700 M⁻¹ s⁻¹.

B3: MAM093: Ankyrin repeat domain specific for DLL3 (SEQ ID NO: 1); single domain (1D) DARPin (protein)
chain: DLGKKLLAAAAQGQDDEVRELLKAGANVNAKDLFGYTPLHLAAWRGHLEIVEVLLKAGADVNAKDAAGETPLHLAAWFGHLEIVEVLLKAGADVNAQDLQGKTPADLAAKEGHEDIAEVLQKAA
modifications: Ankyrin repeat domain specific for DLL3 (MAM093)
notes: single domain (1D) DARPin
Consider B3, for which, in the assay with Human DLL3-ECD, the dissociation constant Kd was determined as 0.13 nM, the “Koff Human DLL3-ECD” value stood at 1.18e-05 s⁻¹ and the “Kon Human DLL3-ECD” value stood at 90700 M⁻¹ s⁻¹. At Cyno DLL3-ECD, the Kd worked out at 8.72 nM, the “Koff Cyno DLL3-ECD” value worked out at 0.000825 s⁻¹ and the “Kon Cyno DLL3-ECD” value stood at 94700 M⁻¹ s⁻¹. Besides, in the assay with mouse DLL3-ECD, the Kd was determined as 149 nM, the “Koff mouse DLL3-ECD” value came out at 0.004 s⁻¹ and the “Kon mouse DLL3-ECD” value worked out at 26700 M⁻¹ s⁻¹. On pig DLL3-ECD, the Kd came out at 14.3 nM, the “Koff pig DLL3-ECD” value worked out at 0.00033 s⁻¹ and the “Kon pig DLL3-ECD” value worked out at 23100 M⁻¹ s⁻¹.

Source of the values: patent publication US20250332297A1, “DLL3-SPECIFIC BINDING CONSTRUCTS AND THEIR USE IN RADIOTHERAPY” (MOLECULAR PARTNERS AG, priority 2024, published 2025).
